Patent US20260226006A1, “INDOLE COMPOUND, PREPARATION METHOD THEREFOR AND USE THEREOF” (SUZHOU MERNA THERAPEUTICS CO. LTD, priority 2023, published 2026)

Assays:
[1] = tested on: KRT1, KRT10, Loricrin, and Involucrin in HaCat keratinocytes; assay: Expression of keratinocyte differentiation markers in HaCat cells, RT-PCR and Western blot (Example 18); assay type: cell-based, human; settings: HBEGF protein alone, 24 hours
Method: 1*10^8 HaCat cells were seeded in culture dishes, into which a recombinant HBEGF protein (Thermo Fisher Scientific, Cat. #100-47-1 mg) was added. The cells were placed in an incubator containing 5% carbon dioxide for culture at 37° C. for 24 hours, into which an HBEGF antibody (Invitrogen, Cat. #406316) was added, or METTL3 siRNA (sh-METTL3, GeneChem) and NAP1L2 siRNA (sh-NAP1L2, GeneChem) were transfected. The cells were placed in an incubator containing 5% carbon dioxide for culture at 37° C. for 24 hours, washed with PBS, and then collected by high-speed centrifugation. An RLT lysis buffer was added to the above collected cells, the mixture was shaken at 4° C. for half an hour and centrifuged to collect the supernatant, and the protein expression amounts of keratinocyte differentiation markers KRT1, KRT10, Loricrin, and Involucrin were measured by Western blot.
Total RNA was extracted using a Trizol reagent (Sigma Aldrich). 1 μg of RNA was reverse-transcribed into cDNA using a cDNA reverse transcription kit (Transgene Biotech, Cat. #AT311-03). 1.25 μL of a primer (with a primer sequence shown in Table 2), 10 μL of an iTag Universal SYBR Green supermix (Bio-Rad, Cat. #172-5125), and an appropriate amount of DEPC ultrapure water were added to formulate 20 μL of a reaction solution to perform an RT-PCR reaction. […]

[2] = tested on: HaCaT keratinocytes; assay: Inhibition of HBEGF-induced differentiation of HaCaT keratinocytes, marker mRNA by RT-PCR (Example 21); assay type: cell-based, human; settings: 2.5 ng/mL human recombinant HBEGF protein alone, 24 hours
Method: Human HaCaT keratinocytes were cultured in a DMEM culture medium containing 10% fetal bovine serum, 100 U/mL penicillin, and 100 µg/mL streptomycin. The cells were seeded into a 96-well plate at a density of […] and placed in an incubator containing 5% carbon dioxide for culture at 37° C. for 24 hours. An equal volume of DMSO was added into control well 1, a 2.5 ng/mL human recombinant HBEGF protein (Abcam, ab205523) was added into control well 2, and a 2.5 ng/mL human recombinant HBEGF protein and corresponding concentrations of test compounds were added into sample wells. The cells were continuously cultured for 24 hours, washed with PBS, and then collected by high-speed centrifugation. Total RNA was extracted using a Trizol reagent (Sigma Aldrich). 1 μg of RNA was reverse-transcribed into cDNA using a cDNA reverse transcription kit (Transgene Biotech, AT311-03). 1.25 μL of a primer (with a primer sequence shown in Table 2), 10 μL of an iTag Universal SYBR Green supermix (Bio-Rad, 172-S125), and an appropriate amount of DEPC ultrapure water were added to formulate 20 μL of a reaction solution to perform an RT-PCR reaction. Upon completion of the reaction, the reaction solution was subjected to agarose gel electrophoresis to determine the mRNA expression amounts of keratinocyte differentiation markers KRT1, KRT10, Loricrin, and Involucrin.

B1: recombinant HBEGF protein: recombinant HBEGF protein used to induce keratinocyte differentiation (protein, UniProt Q99075 63-148, looked up)
Heparin-binding EGF-like …: DLQEADLDLLRVTLSSKPQALATPNKEEHGKRKKKGKGLGKKRDPCLRKYKDFCIHGECKYVKELRAPSCICHPGYHGERCHGLSL
mRNA and protein expression amounts of KRT1, KRT10, Loricrin, and Involucrin [1]: significantly increased
mRNA expression amounts of HaCaT differentiation markers KRT1, KRT10, Loricrin, and Involucrin [2]: significantly increased
